Source: paper doi:10.1101/2022.11.04.515179

Assays:
[1] = biological target: OGG1 WT (untagged) (human, UniProt O15527 1-345); assay: EMSA
[2] = biological target: GST-OGG1 G245A (human, UniProt O15527 1-345, G245A); assay: EMSA
Sequence of GST-OGG1 G245A (O15527 whole entry G245A): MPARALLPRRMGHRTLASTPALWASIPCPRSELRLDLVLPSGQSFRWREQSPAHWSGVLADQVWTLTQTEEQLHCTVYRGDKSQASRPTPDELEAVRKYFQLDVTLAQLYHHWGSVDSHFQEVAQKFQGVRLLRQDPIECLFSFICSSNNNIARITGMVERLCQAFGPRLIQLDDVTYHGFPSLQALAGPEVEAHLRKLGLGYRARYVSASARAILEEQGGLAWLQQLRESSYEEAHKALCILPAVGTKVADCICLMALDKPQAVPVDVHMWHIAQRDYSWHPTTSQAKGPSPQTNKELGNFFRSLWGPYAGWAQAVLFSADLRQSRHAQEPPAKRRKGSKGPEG

Sequence of OGG1 WT (untagged) (O15527 whole entry): as the sequence (O15527 whole entry G245A) above, with A245G counted along it

Row | Binder | binding result [1] | binding result [2]
1 | 32P 24-mer 8-oxoG:C (dsDNA, 8-oxoG at position 13 of strand 1) DNA 1: CTGATCGATGACGCCTGACATGAT DNA 2: ATCATGTCAGGCGTCATCGATCAG | binds | 
2 | Cy5 34-mer 8-oxoG:C (dsDNA, 8-oxoG at position 16 of strand 1) DNA 1: GGCTTCATCGTTGTCGCAGACCTGGTGGATACCG DNA 2: CGGTATCCACCAGGTCTGCGACAACGATGAAGCC |  | no binding
